Test results from PMC8501954.

Molecular target: tRip1-402 (Plasmodium falciparum) (UniProt Q8IL48)
Assay: competition EMSA
Details: unmodified transcript; scale: fold difference from Sc tRNAPheGAA

For minihelixPhe, the binding signal was less than 2.
